Substrate in the data set: C[C@H](O)C(=O)O
The data set can be described thus: purified protein. The following applies: 20 mM HEPES pH 7.4, 50 μM Ampliflu Red, 0.1 U/mL HRP, mean ± SEM, n = 3, lactate enantiomer not given.

The source of these data is publication PMC7841792.

The term Km denotes the concentration of substrate that gives half-maximal velocity. One may read the Vmax as the top rate of the reaction or transport when substrate is in excess.

B1: lactate oxidase (LOX, EC 1.1.3.2) (Aerococcus viridans ATCC 11563 = CCUG 4311) (protein)
chain: MNNNDIEYNAPSEIKYIDVVNTYDLEEEASKVVPHGGFNYIAGASGDEWTKRANDRAWKHKLLYPRLAQDVEAPDTSTEILGHKIKAPFIMAPIAAHGLAHTTKEAGTARAVSEFGTIMSISAYSGATFEEISEGLNGGPRWFQIYMAKDDQQNRDILDEAKSDGATAIILTADSTVSGNRDRDVKNKFVYPFGMPIVQRYLRGTAEGMSLNNIYGASKQKISPRDIEEIAGHSGLPVFVKGIQHPEDADMAIKRGASGIWVSNHGARQLYEAPGSFDTLPAIAERVNKRVPIVFDSGVRRGEHVAKALASGADVVALGRPVLFGLALGGWQGAYSVLDYFQKDLTRVMQLTGSQNVEDLKGLDLFDNPYGYEY
For B1, the Km turned out to be 1620 ± 480 µM and the Vmax came to 22 µmol/min/mg.
